Experimental data from article PMC7961048 (2021).
Read-outs that look alike come from different tables or passages of the source. Non-standard residues stand in square brackets, D forms with d. No end group written: not given here. *: point of attachment. Biotin = O=C1N[C@H]2[C@H](CS[C@H]2CCCCC(=O)*)N1; pT = C[C@@H](OP(=O)(O)O)[C@H](N)C(=O)O; ttds = NCCCOCCOCCOCCCNC(=O)CCC(=O)*

Legend:
Test in all cases: FP
[1] = molecular target: T1, full-length human 14-3-3ζ fused to the C terminus of MBP (human, UniProt P63104 1-245)
T1 chain: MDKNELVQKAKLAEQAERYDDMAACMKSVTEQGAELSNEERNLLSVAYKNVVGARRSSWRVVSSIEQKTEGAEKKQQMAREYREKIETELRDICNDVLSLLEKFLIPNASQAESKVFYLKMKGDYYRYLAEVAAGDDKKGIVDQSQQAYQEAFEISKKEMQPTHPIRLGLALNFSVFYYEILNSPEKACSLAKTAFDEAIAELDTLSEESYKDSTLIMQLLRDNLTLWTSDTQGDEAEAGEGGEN

[2] = molecular target: T2, full-length human 14-3-3β fused to the C terminus of MBP (human, UniProt P31946 1-246)
T2 chain: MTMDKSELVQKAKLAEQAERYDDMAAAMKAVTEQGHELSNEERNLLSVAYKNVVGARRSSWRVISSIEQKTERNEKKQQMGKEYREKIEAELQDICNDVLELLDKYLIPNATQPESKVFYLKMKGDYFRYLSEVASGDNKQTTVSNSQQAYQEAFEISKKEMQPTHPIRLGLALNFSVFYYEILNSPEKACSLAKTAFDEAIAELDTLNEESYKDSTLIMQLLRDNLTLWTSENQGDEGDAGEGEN

[3] = molecular target: T3, full-length human 14-3-3ε fused to the C terminus of MBP (human, UniProt P62258 1-255)
T3 chain: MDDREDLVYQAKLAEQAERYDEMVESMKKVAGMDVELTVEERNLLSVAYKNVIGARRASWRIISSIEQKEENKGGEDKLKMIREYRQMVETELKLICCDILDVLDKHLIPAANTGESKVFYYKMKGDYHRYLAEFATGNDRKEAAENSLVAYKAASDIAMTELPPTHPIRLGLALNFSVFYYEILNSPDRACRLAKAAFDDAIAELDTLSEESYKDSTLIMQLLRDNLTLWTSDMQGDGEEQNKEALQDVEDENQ

[4] = molecular target: T1, full-length human 14-3-3ζ fused to the …
[5] = molecular target: T2, full-length human 14-3-3β fused to the …
[6] = molecular target: T4, unfused 14-3-3τ devoid of the flexible C-terminal tail (human)
T4 chain: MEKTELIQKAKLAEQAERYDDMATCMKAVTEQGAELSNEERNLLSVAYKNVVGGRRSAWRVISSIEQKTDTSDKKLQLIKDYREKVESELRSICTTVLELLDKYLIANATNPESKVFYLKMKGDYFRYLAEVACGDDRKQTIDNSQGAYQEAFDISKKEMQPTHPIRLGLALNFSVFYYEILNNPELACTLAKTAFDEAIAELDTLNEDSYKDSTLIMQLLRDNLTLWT

[7] = molecular target: T5, full-length human 14-3-3γ fused to the C terminus of MBP (human, UniProt P61981 1-247)
T5 chain: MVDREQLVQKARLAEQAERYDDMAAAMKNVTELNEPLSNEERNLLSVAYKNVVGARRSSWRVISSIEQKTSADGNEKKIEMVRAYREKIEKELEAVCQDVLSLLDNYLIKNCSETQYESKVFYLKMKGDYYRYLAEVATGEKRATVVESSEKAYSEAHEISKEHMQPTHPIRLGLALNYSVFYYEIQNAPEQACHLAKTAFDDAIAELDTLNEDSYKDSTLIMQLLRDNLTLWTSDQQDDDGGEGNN

[8] = molecular target: T6, unfused 14-3-3β devoid of the flexible C-terminal tail (human)
T6 chain: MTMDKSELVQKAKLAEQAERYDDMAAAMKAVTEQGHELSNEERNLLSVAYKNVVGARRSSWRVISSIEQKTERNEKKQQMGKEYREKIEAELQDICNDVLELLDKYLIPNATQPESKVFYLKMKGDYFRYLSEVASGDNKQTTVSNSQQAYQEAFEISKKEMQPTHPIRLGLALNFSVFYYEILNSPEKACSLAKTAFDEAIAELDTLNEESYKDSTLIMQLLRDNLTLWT

[9] = molecular target: T7, unfused 14-3-3ε devoid of the flexible C-terminal tail (human)
T7 chain: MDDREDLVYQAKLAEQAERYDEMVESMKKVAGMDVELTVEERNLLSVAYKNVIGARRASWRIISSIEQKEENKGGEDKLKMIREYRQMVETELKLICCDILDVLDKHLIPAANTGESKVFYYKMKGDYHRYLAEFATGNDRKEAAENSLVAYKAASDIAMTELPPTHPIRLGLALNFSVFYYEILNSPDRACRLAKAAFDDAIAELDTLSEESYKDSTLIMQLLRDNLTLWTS

[10] = molecular target: T8, full-length human 14-3-3τ fused to the C terminus of MBP (human, UniProt P27348 1-245)
T8 chain: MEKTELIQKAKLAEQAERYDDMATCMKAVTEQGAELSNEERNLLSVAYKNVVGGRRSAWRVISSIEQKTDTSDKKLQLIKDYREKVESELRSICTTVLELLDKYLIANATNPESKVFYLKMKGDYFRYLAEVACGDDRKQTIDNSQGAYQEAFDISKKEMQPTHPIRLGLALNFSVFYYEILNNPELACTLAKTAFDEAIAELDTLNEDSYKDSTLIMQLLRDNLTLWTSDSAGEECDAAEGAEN

## {Biotin-ttds}-RLQRRRE[pT]QV [HPV18 E6 phospho-PBM peptide p18E6]
[1]
  Kd: 22.4 µM
[2]
  Kd: 42.2 µM
[3]
  Kd: 101 µM
[4]
  Kd: 22.4 µM
[5]
  Kd: 42.2 µM
[6]
  Kd: 42.3 µM
[7]
  Kd: 11.1 µM
[8]
  Kd: 42.3 µM
[9]
  Kd: 66.2 µM
[10]
  Kd: 37.8 µM

## {Biotin-ttds}-SSRTRRE[pT]QL [HPV16 E6 phospho-PBM peptide p16E6]
[1]
  Kd: 73.6 µM
[2]
  Kd: 159 µM
[3]
  Kd: > 300 µM
[4]
  Kd: 73.6 µM
[5]
  Kd: 159 µM
[6]
  Kd: 135 µM
[7]
  Kd: 37.2 µM
[8]
  Kd: 148 µM
[9]
  Kd: 186 µM
[10]
  Kd: 144 µM
